Experimental data from US20230194525A1, “PEPTIDE BASED PROBES FOR THE DETECTION OF SARS-COV-2” (priority 2021, published 2023).
The star is where a group is joined. FITC = O=C1OC2(c3ccc(O)cc3Oc3cc(O)ccc32)c2ccc(NC(=S)*)cc21; DABSYL = CN(C)c1ccc(/N=N/c2ccc(S(=O)(=O)*)cc2)cc1

B1: {Lys(DABSYL)}QELAAIEWELAANERELAAIEGCFNKTFLDKFNHEAEDLFYQSSLARIAALKYKNAALKKKIAALKQ{LYS(FITC)} (peptide)
chain: K(DABSYL)QELAAIEWELAANERELAAIEGCFNKTFLDKFNHEAEDLFYQSSLARIAALKYKNAALKKKIAALKQK(FITC)
B2: {Lys(DABSYL)}QELAAIEWELAANERELAAIEGCFNKTFLDKFNHEAEDLFYQSSLARIAALKYKNAALKKKIA{LYS(FITC)} (peptide)
chain: K(DABSYL)QELAAIEWELAANERELAAIEGCFNKTFLDKFNHEAEDLFYQSSLARIAALKYKNAALKKKIAK(FITC)
B3: {Lys(DABSYL)}QELAAIEWELAANERELAAIEGCFNKTFLDKFNHEAEDLFYQSSLARIAALKYKNAALK{LYS(FITC)} (peptide)
chain: K(DABSYL)QELAAIEWELAANERELAAIEGCFNKTFLDKFNHEAEDLFYQSSLARIAALKYKNAALKK(FITC)

target: L subunits (L1, L2, L3); test: Titration of R units against L subunits, fluorescence intensity after 2 hours; assay type: binding; conditions: R 400 nM to 100 pM against 50 nM L in 1×PBS, pH 7.4, 20-25° C., only rank order given
Method: Residual fluorescence can be due to remaining unreacted L subunits.
In FIG. 4B, R units (400 nM to 100 pM in 1×PBS, pH 7.4) are titrated against 50 nM of L subunits in 1×PBS, pH 7.4 at 20-25° C. and the fluorescence intensities measured after 2 hours. […] All the measurements were performed in triplicates (n=3) and the error bar represents the standard deviation of the data. Statistical analysis was performed using Unpaired t test in GraphPad software and the calculated P is represented as follows: **P<0.01.

Molecule	affinity of R subunits toward L subunits (Kd values), preferential order
B1	RL3>RL1>RL2
B2	RL3>RL1>RL2
B3	RL3>RL1>RL2
